Source: patent publication US20050234225A1 (Eli Lilly, published 2005)
Residue numbers refer to the chain shown, from its start.

B1: D1F7 Fab (Fab, V domains shown)
VH: EVQLVQSGAEVKKPGASVKVSCKASGGTFSSYAISWVRQAPGQGLEWMGGIIPIFGTANYAQKFQGRVTFTADKSTSTAYMELRSLRSDDTAVYYCARGYDYYDSSGVASPFDYWGQGTLVTVSS
VL: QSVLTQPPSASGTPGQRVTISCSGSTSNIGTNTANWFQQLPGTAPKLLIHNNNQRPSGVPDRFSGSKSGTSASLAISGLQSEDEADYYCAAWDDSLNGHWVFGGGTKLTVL
B2: D2C6 Fab (Fab, V domains shown)
VH: EVQLVQSGGGLVKPGGSLRLSCAASGFTFSSYSMNWVRQAPGKGLEWVSSISSSSSYIYYADSVKGRFTISRDNAKNSLYLQMNSLRAEDTAVYYCARVTDAFDIWGQGTMVTVSS
VL: EIVMTQSPATLSLSPGERATLSCRASQSVSSYLAWYQQKPGQAPRLLIYDSSNRATGIPARFSGSGSGTDFTLTISSLEPEDFATYYCLQHNTFPPTFGQGTKVEIK
notes: Soluble human Fab from E. coli HB2151; also called Hu-2C6 Fab; Hu-2C6
B3: D1H4 Fab (Fab, V domains shown)
VH: B2 VH
VL: QSALTQPASLSGSPGQSITISCAGTTTDLTYYDLVSWYQQHPGQAPKLVIYDGNKRPSGVSNRFSGSKSGNTASLTISGLQAEDEADYYCNSYVSSRFYVFGTGTKVTVL
notes: Soluble human Fab from E. coli HB2151; also called DlH4; Hu-1H4 Fab
B4: IMC-1121 IgG (antibody, V domains shown)
VH: B2 VH
VL: DIQMTQSPSSVSASIGDRVTITCRASQGIDNWLGWYQQKPGKAPKLLIYDASNLDTGVPSRFSGSGSGTYFTLTISSLQAEDFAVYFCQQAKAFPPTFGGGTKVDIK
B5: D2H2 Fab (Fab, V domains shown)
VH: B2 VH with N77D
VL: DIQLTQSPSSVSASVGDRVTITCRASQGISSRLAWYQQKPGKAPKLLIYAASSLQTGVPSRFSGSGSGTDFTLTISSLQPEDFATYYCQQANRFPPTFGPGTKVDIK
notes: Soluble human Fab from E. coli HB2151; also called Hu-2H2 Fab
B6: IMC-2C6 IgG (antibody, V domains shown)
VH: B2 VH
VL: B2 VL
B7: Hu-1121 Fab (Fab, V domains shown)
VH: B2 VH
VL: B4 VL
notes: see also CLM-00007) with new light chains

Assays:
cell-surface KDR = cell-surface KDR (human, UniProt P35968 20-1356); assay: cell-based or functional assay
Sequence of cell-surface KDR (P35968 20-1356): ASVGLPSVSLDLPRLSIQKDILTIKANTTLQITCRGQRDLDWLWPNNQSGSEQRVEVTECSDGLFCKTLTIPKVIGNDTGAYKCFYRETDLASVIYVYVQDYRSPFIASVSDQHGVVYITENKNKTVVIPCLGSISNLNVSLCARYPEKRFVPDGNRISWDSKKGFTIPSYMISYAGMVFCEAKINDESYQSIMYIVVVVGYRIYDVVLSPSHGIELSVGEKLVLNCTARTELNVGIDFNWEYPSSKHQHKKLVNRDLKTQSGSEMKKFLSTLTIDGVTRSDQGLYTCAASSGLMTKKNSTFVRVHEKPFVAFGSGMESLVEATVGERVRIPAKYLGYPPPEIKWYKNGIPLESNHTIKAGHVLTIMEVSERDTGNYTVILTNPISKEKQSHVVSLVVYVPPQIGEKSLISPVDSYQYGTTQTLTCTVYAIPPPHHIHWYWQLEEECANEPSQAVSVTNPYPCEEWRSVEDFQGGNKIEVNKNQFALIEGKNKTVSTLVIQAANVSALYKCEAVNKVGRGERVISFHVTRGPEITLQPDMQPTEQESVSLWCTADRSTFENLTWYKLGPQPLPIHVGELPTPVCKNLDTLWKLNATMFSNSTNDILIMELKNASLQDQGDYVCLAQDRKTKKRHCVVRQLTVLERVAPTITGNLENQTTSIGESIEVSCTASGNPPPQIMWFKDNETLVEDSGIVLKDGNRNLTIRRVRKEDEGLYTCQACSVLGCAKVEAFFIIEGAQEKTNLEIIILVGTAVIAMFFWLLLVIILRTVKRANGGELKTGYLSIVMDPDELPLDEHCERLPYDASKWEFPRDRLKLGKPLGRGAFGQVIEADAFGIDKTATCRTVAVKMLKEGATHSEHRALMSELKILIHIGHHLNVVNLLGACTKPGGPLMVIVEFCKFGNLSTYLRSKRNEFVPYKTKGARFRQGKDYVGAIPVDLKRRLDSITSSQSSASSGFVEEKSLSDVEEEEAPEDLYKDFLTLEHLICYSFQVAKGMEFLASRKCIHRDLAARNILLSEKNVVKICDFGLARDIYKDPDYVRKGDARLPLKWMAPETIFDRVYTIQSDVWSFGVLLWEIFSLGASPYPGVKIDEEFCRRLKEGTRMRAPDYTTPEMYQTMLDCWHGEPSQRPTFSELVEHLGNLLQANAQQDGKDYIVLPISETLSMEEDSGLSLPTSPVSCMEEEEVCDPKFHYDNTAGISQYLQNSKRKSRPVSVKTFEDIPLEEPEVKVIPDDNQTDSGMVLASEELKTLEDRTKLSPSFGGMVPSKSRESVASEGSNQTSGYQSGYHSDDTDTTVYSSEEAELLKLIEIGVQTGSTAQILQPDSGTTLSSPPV

[1] = target: T1, KDR-alkaline phosphatase (AP) soluble fusion protein (human, UniProt P35968 20-764); assay: direct binding ELISA: Fab on KDR-coated plate, detected with anti-human Fab-HRP, A450
T1 construct: Expressed in NIH 3T3 cells as in Lu et al. 2000; also called KDR-AP; full length KDR-AP; not shown: alkaline phosphatase (AP) fusion partner
T1 sequence (P35968 20-764): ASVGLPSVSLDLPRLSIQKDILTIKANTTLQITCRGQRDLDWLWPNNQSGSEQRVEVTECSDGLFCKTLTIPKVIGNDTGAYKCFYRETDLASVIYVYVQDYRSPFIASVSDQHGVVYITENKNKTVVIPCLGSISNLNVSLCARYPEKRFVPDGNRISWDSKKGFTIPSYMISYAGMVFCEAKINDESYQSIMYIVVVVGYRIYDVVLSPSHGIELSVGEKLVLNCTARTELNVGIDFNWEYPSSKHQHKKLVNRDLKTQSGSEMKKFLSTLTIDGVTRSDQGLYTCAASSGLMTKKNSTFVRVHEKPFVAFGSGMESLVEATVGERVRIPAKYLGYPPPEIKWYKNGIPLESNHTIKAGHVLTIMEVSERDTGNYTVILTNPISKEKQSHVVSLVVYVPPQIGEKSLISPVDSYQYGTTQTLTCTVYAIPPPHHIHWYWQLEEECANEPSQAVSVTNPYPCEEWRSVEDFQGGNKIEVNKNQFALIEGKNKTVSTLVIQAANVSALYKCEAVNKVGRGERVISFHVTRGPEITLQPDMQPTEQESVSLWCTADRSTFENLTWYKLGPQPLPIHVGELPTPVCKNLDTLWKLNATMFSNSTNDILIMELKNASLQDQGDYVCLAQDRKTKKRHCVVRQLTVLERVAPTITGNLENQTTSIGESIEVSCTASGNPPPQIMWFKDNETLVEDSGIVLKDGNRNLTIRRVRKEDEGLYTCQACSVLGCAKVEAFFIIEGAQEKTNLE
Method: (§1) In a direct binding assay, various amounts of soluble Fab proteins were added to KDR-coated 96-well Maxi-sorp microtiter plates and incubated at RT for 1 h, after which the plates were washed 3 times with PBST. The plates were then incubated at RT for 1 h with 100 μl of a rabbit anti-human Fab antibody-HRP conjugate (Jackson ImunoResearch Laboratory Inc., West Grove, Pa.). The plates were washed and developed following the procedure described above for the phage ELISA. In a competitive KDR/VEGF blocking assay, various amounts of Fab proteins were mixed with a fixed amount of KDR-AP (100 ng) and incubated at RT for 1 h. The mixtures were then transferred to 96-well microtiter plates precoated with VEGF₁₆₅ (200 ng/well) and incubated at RT for an additional 2 h, after which the plates were washed 5 times and the substrate for AP (p-nitrophenyl phosphate, Sigma) was added. Absorbance at 405 nm was measured to quantify the bound KDR-AP molecules (8).
(§2) Clone D2C6 and D2H2 are more efficient binders, followed by clone D1H4 and D1F7. All four Fabs also block KDR binding to immobilized VEGF (FIG. 2B). […] Only clone D1F7 blocks VEGF from binding to Flk-1 (FIG. 2C), with an IC₅₀ of approximately 15 nM.

[2] = target: T1, KDR-alkaline phosphatase (AP) soluble …; assay: BIAcore SPR, KDR immobilized
Method: The binding kinetics of soluble Fab proteins to KDR were measured by surface plasmon resonance using a BIAcore biosensor (Pharmacia Biosensor). KDR-AP fusion protein was immobilized onto a sensor chip and soluble Fab proteins were injected at concentrations ranging from 1.5 nM to 100 nM. Sensorgrams were obtained at each concentration and were evaluated using a program, BIA Evaluation 2.0, to determine the rate constants kon and koff. Kd was calculated from the ratio of rate constants koff/kon.
Antibody affinity or avidity was determined by BIAcore analysis, as above. The binding kinetics, i.e., the association rate constant (kon) and the dissociation rate constant (koff), of the anti-KDR antibodies were measured and the dissociation constant, Kd, was calculated (Table 4).

[3] = target: T1, KDR-alkaline phosphatase (AP) soluble …; assay: competitive blocking ELISA: Fab pre-incubated with KDR-AP, then binding of KDR-AP to immobilised VEGF165, A405
Method: FIG. 2 depicts binding to KDR, blocking of KDR/VEGF interaction and blocking of Flk-1/VEGF interaction by human anti-KDR Fab fragments. FIG. 2A: Dose-dependent binding of human anti-KDR Fab to immobilized KDR. FIG. 2B: Inhibition of KDR binding to immobilized VEGF by anti-KDR Fab. FIG. 2C: Inhibition of Flk-1 binding to immobilized VEGF by anti-KDR Fab. Various amounts of Fab proteins were incubated with a fixed amount of KDR-AP (2B) or Flk-1-AP (2C) in solution at RT for 1 h.
as §1, §2

[4] = target: T2, Flk-1-AP soluble fusion protein (murine, UniProt P35918 20-762); assay: competitive blocking ELISA: Fab pre-incubated with Flk-1-AP, then binding of Flk-1-AP to immobilised VEGF165, A405
T2 construct: Soluble fusion protein from NIH 3T3 cells; also called fetal liver kinase 1; not shown: alkaline phosphatase (AP) fusion partner
T2 sequence (P35918 20-762): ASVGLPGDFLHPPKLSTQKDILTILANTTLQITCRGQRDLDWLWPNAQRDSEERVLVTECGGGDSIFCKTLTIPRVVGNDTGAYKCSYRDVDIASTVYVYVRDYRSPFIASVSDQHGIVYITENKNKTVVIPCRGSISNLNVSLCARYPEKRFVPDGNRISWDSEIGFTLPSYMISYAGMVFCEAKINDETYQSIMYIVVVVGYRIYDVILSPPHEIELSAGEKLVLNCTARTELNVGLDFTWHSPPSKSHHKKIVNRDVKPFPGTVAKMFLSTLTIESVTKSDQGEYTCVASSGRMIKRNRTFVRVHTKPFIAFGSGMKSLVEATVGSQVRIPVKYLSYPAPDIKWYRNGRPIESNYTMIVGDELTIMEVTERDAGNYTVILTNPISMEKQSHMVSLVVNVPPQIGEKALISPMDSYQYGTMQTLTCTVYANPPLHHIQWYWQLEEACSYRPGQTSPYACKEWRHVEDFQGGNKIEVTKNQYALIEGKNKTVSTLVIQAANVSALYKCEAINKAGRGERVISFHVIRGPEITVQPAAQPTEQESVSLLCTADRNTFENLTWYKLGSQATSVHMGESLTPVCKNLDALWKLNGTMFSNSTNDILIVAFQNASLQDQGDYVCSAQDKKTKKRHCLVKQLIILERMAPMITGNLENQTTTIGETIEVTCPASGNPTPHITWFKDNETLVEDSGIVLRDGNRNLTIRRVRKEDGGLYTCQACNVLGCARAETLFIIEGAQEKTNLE

[5] = target: T1, KDR-alkaline phosphatase (AP) soluble …; assay: direct binding ELISA: antibody on KDR-coated plate, detected with anti-human IgG Fc-HRP, A450
Method: (§3) FIG. 6 depicts binding to KDR and blocking of KDR/VEGF interaction by human anti-KDR antibodies. FIG. 6A: Dose-dependent binding of anti-KDR to immobilized KDR. Various amounts of antibodies were incubated at RT for 1 h in 96-well plates coated with KDR FIG. 6B: Inhibition of binding of KDR to immobilized VEGF by human anti-KDR antibodies. Various amounts of the antibodies were incubated with a fixed amount of KDR-AP in solution at RT for 1 hr.
Anti-KDR antibodies were assessed for KDR binding and blocking of VEGF binding. In the direct binding assay, various amounts of antibodies were added to KDR-coated 96-well Maxi-sorp microtiter plates (Nunc, Roskilde, Denmark) and incubated at room temperature (RT) for 1 h, after which the plates were washed 3 times with PBS containing 0.1% Tween-20. The plates were then incubated at RT for 1 h with 100 μl of a rabbit anti-human IgG Fc-HRP conjugate (Jackson ImmunoResearch Laboratory Inc., West Grove, Pa.). The plates were washed and developed as above.

[6] = target: T1, KDR-alkaline phosphatase (AP) soluble …; assay: competitive blocking ELISA: antibody pre-incubated with KDR-AP, then binding of KDR-AP to immobilised VEGF165, A405
Method: as §3
The efficacy of the anti-KDR antibodies for blocking KDR from binding to VEGF was measured with a competition assay. Various amounts of antibodies were mixed with a fixed amount of KDR-AP (100 ng) and incubated at RT for 1 h. The mixtures were then transferred to 96-well microtiter plates precoated with VEGF₁₆₅ (200 ng/well) and incubated at RT for an additional 2 h, after which the plates were washed 5 times and the substrate for AP (p-nitrophenyl phosphate, Sigma) was added, followed by reading the absorbance at 405 nm to quantify the bound KDR-AP molecules. […] The IC₅₀ is approximately 0.8 to 1.0 nM for all three antibodies.

[7] = target: T1, KDR-alkaline phosphatase (AP) soluble …; assay: BIAcore SPR, KDR immobilized; remark: listed apart in the source

Binder	EC50 of inhibition of VEGF-stimulated [3H]-TdR incorporation in HUVEC (cell-surface KDR)	EC50 (read off the curve) [1]	Kd [2]	koff [2]	kon [2]	IC50 (read off the curve) [3]	binding result [4]	EC50 (read off the curve) [5]	IC50 (read off the curve) [6]	fold increase in overall binding avidity against Hu-1121 Fab [7]	fold change of Kd against the monovalent Hu-2C6 Fab [7]	fold improvement in Kd against Hu-2C6 [7]
B1	~15 nM											
B2	~0.5 nM	~0.7 nM	3.6 nM	0.00055 s⁻¹	171000 M⁻¹ s⁻¹	~3 nM	no binding (tested: about 60 nM)					
B3	~0.5 nM	~1 nM				~2 nM	no binding (tested: about 60 nM)					
B4			0.05 nM	2.5e-05 s⁻¹	479000 M⁻¹ s⁻¹			~0.3 nM	~0.8 nM	~2 fold		
B5	~0.8 nM	~0.7 nM				~2 nM	no binding (tested: about 60 nM)					
B6			0.2 nM	4.3e-05 s⁻¹	212000 M⁻¹ s⁻¹			~0.4 nM	~0.7 nM		~18 fold	
B7			0.11 nM	3.1e-05 s⁻¹	296000 M⁻¹ s⁻¹							33 fold
